Patent US20150344583A1 (Amgen, published 2015)

Key:
[1] = target: T1, clipped form of Sumo-huBCMA, SEQ ID NO:355 (human); experiment: SEC of antibody and Sumo-BCMA mixtures
T1 chain: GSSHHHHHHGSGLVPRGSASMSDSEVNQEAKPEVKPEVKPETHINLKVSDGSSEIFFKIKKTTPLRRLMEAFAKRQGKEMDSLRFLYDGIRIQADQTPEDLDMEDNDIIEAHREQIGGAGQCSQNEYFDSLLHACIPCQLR

[2] = target: T2, clipped form of Sumo-huBCMA, SEQ ID NO:354 (human); experiment: SEC of antibody and Sumo-BCMA mixtures
T2 construct: also called peak A
T2 chain: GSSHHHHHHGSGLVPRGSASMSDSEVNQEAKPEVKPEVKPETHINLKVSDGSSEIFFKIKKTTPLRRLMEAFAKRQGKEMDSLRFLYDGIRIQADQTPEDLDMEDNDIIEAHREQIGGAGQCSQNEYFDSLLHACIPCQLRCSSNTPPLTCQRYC

[3] = target: T3, clipped form of Sumo-huBCMA, SEQ ID NO:356 (human); experiment: SEC of antibody and Sumo-BCMA mixtures
T3 construct: the species in the SEC peak came from the Sumo fusion, so it may carry the tag
T3 chain: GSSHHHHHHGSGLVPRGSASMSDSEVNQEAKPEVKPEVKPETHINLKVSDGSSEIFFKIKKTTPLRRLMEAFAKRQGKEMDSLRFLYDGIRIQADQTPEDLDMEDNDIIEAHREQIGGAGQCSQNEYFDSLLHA

[4] = target: T4, cynomolgus (Macaca fascicularis) BCMA on cells (cynomolgus (Macaca fascicularis), UniProt Q02223 1-184 (human entry)); experiment: summary sentence of Example 16; assay for cynomolgus BCMA not given there
T4 construct: also called cyno BCMA; cynomolgus BCMA
T4 sequence (Q02223 other isoform, or with tags, fused parts or gaps): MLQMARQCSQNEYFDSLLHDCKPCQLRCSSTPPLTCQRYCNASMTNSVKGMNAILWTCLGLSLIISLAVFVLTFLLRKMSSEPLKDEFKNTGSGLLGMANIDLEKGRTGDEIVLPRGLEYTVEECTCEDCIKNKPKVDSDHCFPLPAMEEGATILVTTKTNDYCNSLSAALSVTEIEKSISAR

[5] = target: T5, clipped form of Sumo-huBCMA, SEQ ID NO:357 (human); experiment: SEC and LC/MS
T5 chain: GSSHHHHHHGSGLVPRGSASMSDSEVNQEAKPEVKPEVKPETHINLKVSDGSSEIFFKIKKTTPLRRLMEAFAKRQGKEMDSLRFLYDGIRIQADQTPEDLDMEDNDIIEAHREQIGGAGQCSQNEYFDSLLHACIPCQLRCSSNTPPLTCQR

Measured: binding result

B1: Ab-1 (2A1CV5) (antibody, human IgG1, lambda, V domains shown)
VH: EVQLVESGGGLVKPGGSLRLSCAASGFTFGDYALSWFRQAPGKGLEWVGVSRSKAYGGTTDYAASVKGRFTISRDDSKSTAYLQMNSLKTEDTAVYYCASSGYSSGWTPFDYWGQGTLVTVSS
VL: not shown
binds: [1] | [2] | [3] | [4] | [5]
